Assays:
Assay in all cases: cell-based or functional assay
[1] = molecular target: human FcγRIIa, H variant (human) (UniProt P12318)
[2] = molecular target: human FcγRIIa, R variant (human) (UniProt P12318)
human FcγRIIb (human) = human FcγRIIb (human) (UniProt P31994)
mouse FcγRIII (mouse) = mouse FcγRIII (mouse) (UniProt P08508)
mouse FcγRIV (mouse) = molecular target: mouse FcγRIV (mouse)
Sequence of mouse FcγRIV (mouse) (A0A0B4J1G0 21-203): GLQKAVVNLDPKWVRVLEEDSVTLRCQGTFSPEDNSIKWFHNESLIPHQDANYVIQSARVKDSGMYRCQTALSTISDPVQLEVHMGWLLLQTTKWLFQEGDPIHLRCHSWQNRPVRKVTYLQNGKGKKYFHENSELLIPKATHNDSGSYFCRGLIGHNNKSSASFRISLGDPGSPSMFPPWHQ

Sequence of human FcγRIIa, R variant (human) (P12318 other isoform, or with tags, fused parts or gaps mutant limits assumed): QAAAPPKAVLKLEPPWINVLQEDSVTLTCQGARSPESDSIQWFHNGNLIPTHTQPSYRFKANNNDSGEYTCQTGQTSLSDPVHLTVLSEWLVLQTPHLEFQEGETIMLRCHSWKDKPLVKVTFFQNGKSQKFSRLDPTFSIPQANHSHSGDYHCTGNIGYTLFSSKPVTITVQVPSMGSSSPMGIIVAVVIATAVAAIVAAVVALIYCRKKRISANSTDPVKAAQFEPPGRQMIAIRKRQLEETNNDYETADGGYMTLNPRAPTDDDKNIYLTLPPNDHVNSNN
Sequence of human FcγRIIa, H variant (human) (P12318 34-317, change not shown): as the sequence (P12318 other isoform, or with tags, fused parts or gaps mutant limits assumed) above, with R134H counted along it
Sequence of human FcγRIIb (human) (P31994 43-310): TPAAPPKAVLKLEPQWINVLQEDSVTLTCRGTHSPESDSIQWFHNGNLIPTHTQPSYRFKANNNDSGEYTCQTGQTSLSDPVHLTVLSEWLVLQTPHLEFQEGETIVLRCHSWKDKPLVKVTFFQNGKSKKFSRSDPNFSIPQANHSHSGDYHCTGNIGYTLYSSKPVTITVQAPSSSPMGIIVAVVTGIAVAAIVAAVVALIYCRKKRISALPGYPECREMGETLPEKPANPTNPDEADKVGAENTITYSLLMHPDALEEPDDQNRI
Sequence of mouse FcγRIII (mouse) (P08508 31-261): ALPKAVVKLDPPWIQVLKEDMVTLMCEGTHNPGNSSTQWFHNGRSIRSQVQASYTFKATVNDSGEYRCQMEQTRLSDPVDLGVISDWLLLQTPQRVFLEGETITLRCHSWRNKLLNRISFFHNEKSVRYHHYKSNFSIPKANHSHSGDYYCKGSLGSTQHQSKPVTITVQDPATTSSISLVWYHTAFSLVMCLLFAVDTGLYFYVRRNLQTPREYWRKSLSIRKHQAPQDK

EC50 [1]: 0.05 µg/mL
Maximum luminescence (RLU) [1]: 973 RLU
EC50 [2]: 0.21 µg/mL
Maximum luminescence (RLU) [2]: 2640 RLU
EC50 (human FcγRIIb (human)): 0.17 µg/mL
Maximum luminescence (RLU) (human FcγRIIb (human)): 5800 RLU
Maximum luminescence (RLU) (mouse FcγRIII (mouse)): 17500 RLU
EC50 (mouse FcγRIV (mouse)): 2.21 µg/mL
Maximum luminescence (RLU) (mouse FcγRIV (mouse)): 990 RLU
Substance: Ipilimumab (antibody)
